Measurements published in patent US20090041783A1 (MOCHIDA PHARMACEUTICAL, published 2009).
Positions count from the first letter of the chain named.

B1: PEG-F1232-372Fab (Fab, V domains shown)
VH: VQLQQSGPELVRPGESVKISCKGSGYTFTDYAIHWVKLSHAKSLEWIGVISIYYDDTNYNQKFKGKATMTVDKSSSTAYLELARLTSEDSAIYYCARRRDSSGPYAMDYWGQGTSVTVSS
VL: DIVLTQSPASLAVSLGQRATISCRASESVDSYGNSFMHWYQQKPGQPPKLLIYRASNLESGIPARFSGSGSRTDFTLTINPVEADDVATYYCQQSNEDPYTFGGGTKLEIK
modifications: linear 20 KD PEG with succinimide group; sites not given ; Linear 20 KD PEG with succinimide group coupled to the Fab; sites and number not given.
notes: also called PEGylated F1232-37-2 Fab antibody; PEGylated F1232-37-2Fab fragment; copies: 1 + 1
B2: F1245-5-1 (antibody, V domains shown)
VH: QVQLQQPGAELVKPGASVKLSCKASGYTFISYWMHWVKQRPGQGLEWIGMIHPNSGSTHYNEKFKSKATLTVDKSSSTAYMQLSSLTSEDSAVYYCARGGVTPVAYWGQGTLVTVSA
VL: SIVMTQTPKFLLVSAGDRVTITCKASQSVSNDVAWYQQKPGQSPKLLIYYASNRYTGVPDRFTGSGYGTDFTFTISTVQAEDLAVYFCQQDYSSPWTFGGGTKLEIKR
B3: F1245-6-2 (antibody, V domains shown)
VH: B2 VH with I30T, H59N
VL: B2 VL with D60Y
B4: F1249-24-1 (antibody, V domains shown)
VH: QVQLQQSGAELVRPGVSVKISCKGSGYTFTDYAMHWVKQSHAKSLEWIGVISTYYGDTSYNQKFKGKATMTVDKSSSTAYMELARLTSEDSAIYYCARAEDYDPWFAYWGQGTLVTVSA
VL: DIVLTQSPASLAVSLGQRATISCRASESVDSYGNSFMHWYQQKPGQPPKLLIYRASNLESGIPARFSGSGSRTDFTLTINPVEADDVATYYCQQSDEDPLTFGAGTKLELKR
B5: F1232-7-1 (antibody, V domains shown)
VH: B1 VH with L80M
VL: B4 VL with D96N, L100Y, A104G, L110I
notes: Mouse hybridoma monoclonal antibody; also called F1232-7-1 antibody
B6: F1201-18 (antibody, V domains shown)
VH: VQLVESGGGLVKPGGSLKLSCAASGFTFSSYAMSWVRQTPEKRLEWVAIISSGGSYTYYPDSVKGRFTISRDNAKNTLYLHMSSLRSEDTAMYYCARQGGGYFDYWGQGTTLTVSS
VL: B4 VL with L58V, D96N, L100P
notes: Mouse hybridoma monoclonal antibody
B7: F1232-24-1 (antibody, V domains shown)
VH: VQLQQSGAELVRPGVSVKISCKGSGYTFTDYAMHWVKQSHAKSLEWIGVISTYYGDASYNQKFKGKATMTVDKSSSTAYMELARLTSEDSAIYYCARSYDYDPWFAYWGQGTLVTVSA
VL: B4 VL with S31N, N34I, A84T, D96N, E97K
notes: as for B6
B8: F1232-18-3 (antibody, V domains shown)
VH: VMLVESGGGLVKPGGSLKLSCAASGFTFSSYAMSWVRQTPEKRLEWVATISSGGSYTYYPDSVKGRFTISRDNAKNTLYLQMSSLRSADTAMYYCARDYGYFDYWGQGTTLTVSS
VL: B4 VL with S31N, N34I, I52F, A84T, D96N, E97T, L100R, A104G, L110I
notes: as for B6
B9: F1232-17-1 (antibody, V domains shown)
VH: VQLVESGGDLVKPGGSLKLSCAASGFTFSSYGMSWVRQTPDKRLEWVATISSGGSYTYYPDNVKGRFTISRDNAKNTLYLQMSSLNSEDTAMYYCARQVYYFGSCDYWGQGTTLTVSS
VL: B4 VL with S31N, N34I, A84T, D96N, E97K, L100W, A104G, L110I
notes: as for B6
B10: PEGylated F1232-37-2 antibody (antibody, V domains shown)
VH: B1 VH
VL: B4 VL with D96N, L100Y, A104G, L110I
modifications: linear PEG of 20 KD coupled through a succinimide group; sites not stated
notes: Whole mouse F1232-37-2 reacted with PEG at antibody:PEG 1:10 (molar) and purified on Q Sepharose HP; also called F1232-37-2 PEGylated antibody

Target: T1, human GPVI extracellular region-human Fc fusion protein (hGPVI-hFc) (human)
T1 construct: Expressed in COS-1, purified on Protein A; also called GPVI-HHH-hFc; hGPVIHHH-hFc
T1 sequence (chain, as listed by the source limits assumed): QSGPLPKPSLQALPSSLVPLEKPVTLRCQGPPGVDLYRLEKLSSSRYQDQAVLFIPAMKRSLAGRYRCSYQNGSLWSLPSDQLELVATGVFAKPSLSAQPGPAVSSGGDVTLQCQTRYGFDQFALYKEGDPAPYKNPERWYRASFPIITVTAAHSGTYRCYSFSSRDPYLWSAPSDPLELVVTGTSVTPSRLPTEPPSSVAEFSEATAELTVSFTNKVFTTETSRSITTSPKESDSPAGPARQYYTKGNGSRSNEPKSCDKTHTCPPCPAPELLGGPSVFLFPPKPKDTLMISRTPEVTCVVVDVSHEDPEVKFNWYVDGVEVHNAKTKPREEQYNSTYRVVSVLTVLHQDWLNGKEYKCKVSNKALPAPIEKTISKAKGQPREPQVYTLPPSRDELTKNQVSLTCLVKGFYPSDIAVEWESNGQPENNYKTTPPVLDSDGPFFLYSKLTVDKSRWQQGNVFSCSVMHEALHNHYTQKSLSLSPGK
Test: ELISA on immobilised hGPVI-hFc (GPVI antigen binding assay of Example 31)

EC50 (read off the curve) [µg/mL]	Binder
~0.3	B1

Target: T1, human GPVI extracellular region-human …
Test: ELISA of hybridoma culture supernatant on coated hGPVI-hFc (selection criterion)
Procedure: Next, culture supernatant was added to each well and incubated at 37° C. for one hour. After incubation, the well was washed three times with the saline containing 0.05% Tween20. Peroxidase-labeled anti-mouse immunoglobulin antibody (DAKO, P260) was 1000-fold diluted with D-PBS containing 10% rabbit serum and added to each well at 50 μL. After incubation at 37° C. for one hour, washing in a similar manner was performed and TMB solution (BioFix) was added to each well. After ten minutes at room temperature, the reaction was terminated with 0.5 M sulfuric acid solution. Subsequently, absorbance at 450 nm was measured with the plate spectrophotometer (Multiscan JX, Dainippon Pharmaceutical). As a result, the cell whose culture supernatant reacted to hGPVI-hFc was selected and a cloning with limiting dilution method (“The Introduction to Monoclonal Antibody Experimental Procedure” written by Tamie Andoh and Takeshi Chiba (Kodansha, p 83)) was performed. Eight days later, screening was done in a similar manner and the antibody which reacts to hGPVI-hFc was selected.
After one week, hybridoma, which produces a desired antibody was screened using the binding property to hGPVI-hFc and hGPVI-mL9-hFc prepared in EXAMPLE 7 as an index. That is, the purified hGPVI-hFc or hGPVI-mL9-hFc, which was prepared in EXAMPLE 1, was diluted with D-PBS (pH7.4) to 1 μg/mL. And 50 μL/well of the solution was added to make hGPVI-hFc or hGPVI-mL9-hFc-coated plate using the same method as that of EXAMPLE 2. Next, a culture supernatant was added to each well, and after incubation at room temperature for one hour, by the same method as that of EXAMPLE 2, using peroxidase-labeled anti-mouse immunoglobulin antibody (DAKO, P260) a reaction was performed to measure an absorbance. As a result, the cell producing an antibody that binds to the purified hGPVI-hFc (absorbance: equal to or more than one), but not hGPVI-mL9-hFc (abdorbance: equal to or less than 0.5) was selected and cloned by the method described in EXAMPLE 2. Eight through ten days later, a screening was done as with the similar way to obtain a hybridoma producing an L9-specific mouse anti-human GPVI antibody. As with EXAMPLE 2B (3), the obtained hybridoma was cultured and a monoclonal antibody was purified. The sub-type of each antibody was determined using IsoStrip Mouse Monoclonal antibody Isotyping Kit (Roche).

absorbance [absorbance]	Binder
≥ 1	B2
≥ 1	B3
≥ 1	B4

Target: T1, human GPVI extracellular region-human …
Test: competition ELISA on hGPVI-hFc plate; competitor: peroxidase-labelled F1232-37-2; +++ more than 50%, ++ 30-50%, + 10-30% inhibition
Procedure: (§1) To analyze a property for each antibody obtained in EXAMPLE 13, binding to human GPVI-hFc, competition with F1232-37-2 described in EXAMPLE 4 and specificity for L9 loop were investigated. That is, as for the binding to human GPVI, according to the method of EXAMPLE 2, a binding activity to immobilized antigen was measured. For the binding activity, the range of absorbance from 0.5 to 1.0 is represented by “+”, from 1.0 to 2.0 by “++”, the range more than 2.0 by “+++”. The competitive test with F1232-37-2 was performed as follows. That is, according to the method by Nakane et al. (J. Histochem. Cytochem., 22, 1084, 1974), peroxidase (TOYOBO)-labeled F1232-37-2 antibody was prepared and an antibody concentration was calculated from the amount of the antibody used.
Next, by using the peroxidase-labeled antibody, the competitive test for a variety of purified antibody was performed. That is, 25 μL of the above labeled antibody and 25 μL of each purified antibody were added to well of hGP-hFc-immobilized plate. After incubation at 37° C. for one hour, the well was washed five times with the saline containing 0.05% Tween20, and the reaction mixture was developed with TMB solution (BioFix). After incubation at room temperature for 10 minutes, the reaction was terminated with 0.5 M sulfuric acid solution and an absorbance at 450 nm was measured with the plate spectrophotometer (Multi-Scan JX, Dainippon Pharmaceutical).

percent inhibition [%]	Binder
30 to 50	B2
> 50	B3
> 50	B4

Target: T1, human GPVI extracellular region-human …
Test: SPR (BIACORE3000), GPVI-Fc on CM5 chip, antibody 1.25-40 nM as analyte, bivalent analyte fit
Procedure: (§2) Dissociation constant for the anti-GPVI monoclonal antibody prepared in EXAMPLE 2 was measured using protein interaction analyzer BIACORE3000 (BIACORE). That is, to sensor chip, CM5 chip (BIACORE), GPVI substitution mutant (hGPVIHHH-hFc and FFH-hFc) that is prepared in EXAMPLE 1 was linked according to the manual. Then each antibody was diluted with HBS-EP buffer solution (BIACORE) to prepare a series of diluted solution from 1.25 to 40 nM, and analyzed with BIACORE3000. Every each antibody bound chip, the chip was regenerated with glycine buffer solution at pH1.5. The obtained result was analyzed with Bivalent analyte, the evaluation software (BIACORE) to calculate dissociation constant. It was shown that each anti-GPVI monoclonal antibody has a sufficient affinity to GPVI-HHH-hFc.

Kd [pM]	Binder
34700	B5
1160	B6
250	B7
1650	B8
522	B9

Target: T2, cynomolgus monkey D1D2-human D3 chimeric GPVI-human Fc fusion protein (GPVI-FFH-hFc) (cynomolgus monkey (D1, D2) and human …)
T2 construct: also called Monkey GPVI
T2 sequence (chain, as listed by the source mutant limits assumed): as the sequence (chain, as listed by the source limits assumed) above, with S2R, S61H, L78P, R166G, V181M, P442S counted along it
Test: as above
Procedure: as §2

Kd [pM]	Binder
343000	B5
619	B6
710	B7
365000	B8
177	B9

Target: T1, human GPVI extracellular region-human …
Test: ELISA on immobilised hGPVI-hFc, peroxidase-labelled anti-mouse immunoglobulin antibody
Procedure: Binding activity to the antigen was detected by ELISA. To each well of immunoplate immobilized with hGPVI-hFc (prepared by the method described in EXAMPLE 2 and the like), F1232-37-2 antibody and F1232-37-2 PEGylated antibody, wherein both antibodies had been adjusted to the same concentration, was added and the plate was incubated at 37° C. for one hour. The well was washed with saline containing 0.05% Tween20. Then 50 μL of peroxidase-labeled anti-mouse immunoglobulin antibody (DAKO, P260), which had been diluted by 1000-fold with 10% rabbit serum-containing D-PBS, was added to each well. After incubation at 37° C. for one hour, coloring reaction by the TMB substrate was done to measure an absorbance at 450 nm with plate spectro-photometer (Molecular Devices, Wako). As a result, it was confirmed that both F1232-37-2 antibody and PEGylated F1232-37-2 antibody have almost equivalent binding activity.

EC50 (read off the curve) [µg/mL]	Binder
~0.02	B10

Target: T1, human GPVI extracellular region-human …
Test: ELISA, collagen on plate, hGPVI-hFc plus antibody; +++ more than 50%, ++ 30-50%, + 10-30% inhibition

percent inhibition [%]	Binder
10 to 30	B2
10 to 30	B3
10 to 30	B4

Target: T1, human GPVI extracellular region-human …
Test: ELISA on immobilised hGPVI-hFc; + A450 0.5-1.0, ++ 1.0-2.0, +++ more than 2.0
Procedure: The hGPVI-hFc prepared by EXAMPLE 1B was diluted with D-PBS to 2 μg/mL and added to immunoplate (Maxisorp NUNC) at 50 μL/well. After incubation at 37° C. for one hour, the well was washed five times with ion-exchanged water, and D-PBS (pH7.4) containing 2% StabilGuard (Surmodics) was added to each well in 100 μL for blocking. Next, culture supernatant was added to each well and incubated at 37° C. for one hour. After incubation, the well was washed three times with the saline containing 0.05% Tween20. Peroxidase-labeled anti-mouse immunoglobulin antibody (DAKO, P260) was 1000-fold diluted with D-PBS containing 10% rabbit serum and added to each well at 50 μL. After incubation at 37° C. for one hour, washing in a similar manner was performed and TMB solution (BioFix) was added to each well. After ten minutes at room temperature, the reaction was terminated with 0.5 M sulfuric acid solution. Subsequently, absorbance at 450 nm was measured with the plate spectrophotometer (Multiscan JX, Dainippon Pharmaceutical). As a result, the cell whose culture supernatant reacted to hGPVI-hFc was selected and a cloning with limiting dilution method (“The Introduction to Monoclonal Antibody Experimental Procedure” written by Tamie Andoh and Takeshi Chiba (Kodansha, p 83)) was performed. Eight days later, screening was done in a similar manner and the antibody which reacts to hGPVI-hFc was selected.
as §1

absorbance [od]	Binder
1 to 2	B2
1 to 2	B3
> 2	B4
